From publication PMC7959386 (2021) come the findings set out here.

Experiment [1] addresses T1, SARS-CoV-2 Spike receptor-binding domain (residues 330-541) (SARS-CoV-2, UniProt P0DTC2 330-541). Briefly: BLI.
Experiment [2] deals with T1, SARS-CoV-2 Spike receptor-binding …. Briefly: BLI. The source holds these as a separate data set.

B1: MR6 (synthetic nanobody, sybody) (VHH)
VHH: QVQLVESGGGLVQAGGSLRLSCAASGFPVEDTWMEWYRQAPGKEREWVAAITSWGFKTYYADSVKGRFTISRDNAKNTVYLQMNSLKPEDTAVYYCNVKDEGDTSASYDYWGQGTQVTVSS
B1 returned a koff in experiment [1] of 0.0072 s⁻¹.

B2: MR17 (synthetic nanobody, sybody) (VHH)
VHH: QVQLVESGGGLVQAGGSLRLSCAASGFPVEVWRMEWYRQAPGKEREGVAAIESYGHGTRYADSVKGRFTISRDNAKNTVYLQMNSLKPEDTAVYYCNVKDDGQLAYHYDYWGQGTQVTVSA
For the molecule B2, the koff in experiment [1] was found to be 0.0097 s⁻¹. The Kd in experiment [2] was found to be 83.7 nM.
